# Results from patent US20120165267A1 (Genentech, published 2012).
# How the values were obtained:
# DR5-IgG = target: T1, DR5-IgG (human, UniProt O14763 56-184); experiment: spot ELISA, phage on coated protein
# T1 construct: also called Apo-2-IgG; not shown: IgG part; prepared as in WO98/51793, not described here
# BSA = target: T2, BSA (UniProt P02769 25-607); experiment: spot ELISA, phage on coated protein
# T2 construct: Control protein of the spot ELISA
# T2 sequence (P02769 25-607 limits assumed): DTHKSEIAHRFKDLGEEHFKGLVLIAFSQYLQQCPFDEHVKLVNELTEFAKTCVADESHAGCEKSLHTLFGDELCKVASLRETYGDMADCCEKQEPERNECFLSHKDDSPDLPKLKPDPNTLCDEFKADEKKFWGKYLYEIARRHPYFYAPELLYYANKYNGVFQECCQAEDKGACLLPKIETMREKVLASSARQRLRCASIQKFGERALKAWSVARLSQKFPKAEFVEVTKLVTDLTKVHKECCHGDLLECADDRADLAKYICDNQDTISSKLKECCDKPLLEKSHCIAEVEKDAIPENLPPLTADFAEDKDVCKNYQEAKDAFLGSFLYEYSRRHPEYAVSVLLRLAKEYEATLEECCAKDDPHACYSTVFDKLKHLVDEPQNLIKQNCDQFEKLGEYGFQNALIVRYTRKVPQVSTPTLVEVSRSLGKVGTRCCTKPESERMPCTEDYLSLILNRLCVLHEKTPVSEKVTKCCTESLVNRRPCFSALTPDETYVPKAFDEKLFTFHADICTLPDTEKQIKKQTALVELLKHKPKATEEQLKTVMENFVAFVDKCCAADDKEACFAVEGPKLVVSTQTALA
# T1 sequence (O14763 56-184): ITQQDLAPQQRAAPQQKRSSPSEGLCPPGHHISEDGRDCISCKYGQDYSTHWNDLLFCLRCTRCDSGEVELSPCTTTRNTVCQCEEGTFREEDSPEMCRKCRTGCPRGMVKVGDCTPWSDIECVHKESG
Binder,binding result (DR5-IgG),binding result (BSA)
"DR4-selective phage clone 8 (ligand, also called DR4-8) SEETISTVQEKQQNISPLVRERGPQRVAAHITGTRGRSNTLSSPNSKNEKALGRKINSWESSRSGHSFLSNLHLRNGELVIHEKGFYYIYSQTAFRFSEEIKEVTRNDKQMVQYIYKWTDYPDPILLMKSARNSCWSKDAEYGLYSIYQGGIFELKENDRIFVSVTNEHLIDMDHEASFFGAFLVG",no binding,no binding
"DR4-selective phage clone 9 (ligand, also called DR4-9) SEETISTVQEKQQNISPLVRERGPQRVAAHITGTRGRSNTLSSPNSKNEKALGRKINSWESSRSGHSFLSNLHLRNGELVIHEKGFYYIYSQTAFRFSEEIKERTRNDKQMVQYIYKWTDYPDPILLMKSARNSCWSKDAEYGLYSIYQGGIFELKENDRIFVSVTNEHLIDMDHEASFFGAFLVG",no binding,no binding
